Measurements taken from paper PMC4405695 (2015).

Molecular target: GST-Rab6A Q72L (UniProt P20340 1-208, Q72L)
Assay: GTPγS-loaded Rab6A

Chain of GST-Rab6A Q72L (P20340 whole entry Q72L): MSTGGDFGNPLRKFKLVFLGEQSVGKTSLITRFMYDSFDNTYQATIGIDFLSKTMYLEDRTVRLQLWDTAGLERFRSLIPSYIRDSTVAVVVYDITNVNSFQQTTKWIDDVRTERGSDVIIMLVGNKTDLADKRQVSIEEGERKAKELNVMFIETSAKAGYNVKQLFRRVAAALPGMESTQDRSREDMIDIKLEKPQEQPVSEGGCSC

B1: KIF1C-355-His (domain or fragment)
chain: MAGASVKVAVRVRPFNARETSQDAKCVVSMQGNTTSIINPKQSKDAPKSFTFDYSYWSHTSTEDPQFASQQQVYRDIGEEMLLHAFEGYNVCIFAYGQTGAGKSYTMMGRQEPGQQGIVPQLCEDLFSRVSENQSAQLSYSVEVSYMEIYCERVRDLLNPKSRGSLRVREHPILGPYVQDLSKLAVTSYADIADLMDCGNKARTVAATNMNETSSRSHAVFTIVFTQRCHDQLTGLDSEKVSKISLVDLAGSERADSSGARGMRLKEGANINKSLTTLGKVISALADMQSKKRKSDFIPYRDSVLTWLLKENLGGNSRTAMIAALSPADINYEETLSTLRYADRTKQIRNTVSVN
Question: With B1 as the binder, how does the Kd read?
Answer: The Kd was 170 nM.
